Consider two molecules from patent US20210030857A1 (NGM BIOPHARMACEUTICALS, published 2021).

In general, Kd refers to the free concentration of one partner at which half of the binding sites on the other are occupied at equilibrium, for simple one-to-one binding. Low values mean tighter binding, high ones weaker binding.

Test [1] deals with T1, human beta klotho protein (soluble, used in Biacore) (human, UniProt Q86Z14 53-997, limits assumed).
T1 construct: also called HuKLB; huKLB
T1 sequence: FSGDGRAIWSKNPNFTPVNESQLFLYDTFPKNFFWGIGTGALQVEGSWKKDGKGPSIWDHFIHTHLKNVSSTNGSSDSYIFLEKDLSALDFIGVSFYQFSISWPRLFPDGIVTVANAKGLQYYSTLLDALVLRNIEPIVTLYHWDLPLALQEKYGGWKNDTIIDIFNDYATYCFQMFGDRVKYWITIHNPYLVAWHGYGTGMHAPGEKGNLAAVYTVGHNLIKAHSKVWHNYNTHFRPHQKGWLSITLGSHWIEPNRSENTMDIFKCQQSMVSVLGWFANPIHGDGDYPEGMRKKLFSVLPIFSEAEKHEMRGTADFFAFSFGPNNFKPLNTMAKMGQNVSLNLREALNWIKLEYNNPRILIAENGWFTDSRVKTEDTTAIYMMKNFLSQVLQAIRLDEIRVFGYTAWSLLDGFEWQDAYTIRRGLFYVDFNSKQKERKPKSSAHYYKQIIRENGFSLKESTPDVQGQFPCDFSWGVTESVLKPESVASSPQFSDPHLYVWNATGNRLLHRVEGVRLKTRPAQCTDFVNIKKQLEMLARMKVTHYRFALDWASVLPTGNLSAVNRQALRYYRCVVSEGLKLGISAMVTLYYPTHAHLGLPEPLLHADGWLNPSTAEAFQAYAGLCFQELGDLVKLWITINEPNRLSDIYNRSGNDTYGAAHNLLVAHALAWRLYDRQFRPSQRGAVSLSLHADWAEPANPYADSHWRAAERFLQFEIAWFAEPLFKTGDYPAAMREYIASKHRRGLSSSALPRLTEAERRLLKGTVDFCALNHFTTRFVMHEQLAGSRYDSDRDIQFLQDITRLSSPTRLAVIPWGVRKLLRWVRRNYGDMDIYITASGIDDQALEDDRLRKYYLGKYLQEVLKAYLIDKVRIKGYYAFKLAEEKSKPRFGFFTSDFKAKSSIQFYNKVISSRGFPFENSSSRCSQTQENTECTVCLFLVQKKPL
In words: Biacore SPR (as in Example 2). In general terms: Surface plasmon resonance follows binding to a sensor surface in real time, without labels.

For test [2], the target named is T2, human beta klotho / human FGFR1c receptor complex on cells (human, UniProt Q86Z14 1-1044; P11362 22-822). The test is described as follows: cell-based or functional assay.
Test [3] concerns the target T2, human beta klotho / human FGFR1c …. In words: cell-based or functional assay. This is another data set of the same source.

Where “and” joins values, the source holds several entries; their conditions need not be identical. Equal values may be shown once. Read-outs that look alike come from different tables or passages of the source.

B1: antibody 5H23 (antibody, V domains shown)
VH: QVQLQQSGPELVKPGALVKISCKASGYTFTSYDINWVKQRPGQGLEWIGWIYPGDGSTKYNEKFKGKATLTADKSSRTAYMQLSSLTSENSAVYFCARSDYYGSRSFAYWGQGTLVTVSA
VL: DIVLTQSPASLAVSLGQRATISCRASKSVSTSGYVYMHWNQQKPGQPPKLLIYLASYLESGVPARFSGSGSGTDFTLNIHPVEEEDAAIYYCQHSRDLTFPFGGGTKLEIK
notes: Murine monoclonal antibody from hybridoma; also called 5H23-Alexa647 (labelled form)
In the case of B1, in test [1], the Kd was 50 pM. Further, in test [2], the EC50-adipocyte came to 3400 pM; the EC50 reporter assay was 270 pM and 510 pM.

B2: humanized 5H23 antibody (VH SEQ ID NO: 271 and VL SEQ ID NO: 276) (antibody, V domains shown)
VH: QVQLQQSGAEVKKPGASVKVSCKASGYTFTSYDINWVRQAPGQGLEWIGWIYPGDGSTKYNEKFKGKATITRDTSASTAYMELSSLRSEDTAVYFCARSDYYGSRSFAYWGQGTLVTVSS
VL: DIVMTQSPDSLAVSLGERATINCRASKSVSTSGYVYMHWYQQKPGQPPKLLIYLASYLESGVPDRFSGSGSGTDFTLTISSVQAEDVAVYYCQHSRDLTFPFGGGTKLEIK
notes: also called h5H23; h5H23 (Prep 1)
In test [3], B2 displayed an EC50 adipocyte of 11200 pM and an EC50 reporter assay of 600 pM.
